Measured values from patent publication US20260049146A1 (PARAGON THERAPEUTICS, published 2026).

B1: Construct 1 PAL02-0195 (IgG1 Fc_M252Y/S254T/T256E/M428L/H433K/N434F) (other)
chain: DKTHTCPPCPAPELLGGPSVFLFPPKPKDTLYITREPEVTCVVVDVSHEDPEVKFNWYVDGVEVHNAKTKPREEQYNSTYRVVSVLTVLHQDWLNGKEYKCKVSNKALPAPIEKTISKAKGQPREPQVYTLPPSRDELTKNQVSLTCLVKGFYPSDIAVEWESNGQPENNYKTTPPVLDSDGSFFLYSKLTVDKSRWQQGNVFSCSVLHEALKFHYTQKSLSLSPG
notes: Fc fragment variant
B2: Construct 3 PAL02-0197 (IgG1 Fc_M252Y/S254T/T256E/H433K/N434Y) (other)
chain: DKTHTCPPCPAPELLGGPSVFLFPPKPKDTLYITREPEVTCVVVDVSHEDPEVKFNWYVDGVEVHNAKTKPREEQYNSTYRVVSVLTVLHQDWLNGKEYKCKVSNKALPAPIEKTISKAKGQPREPQVYTLPPSRDELTKNQVSLTCLVKGFYPSDIAVEWESNGQPENNYKTTPPVLDSDGSFFLYSKLTVDKSRWQQGNVFSCSVMHEALKYHYTQKSLSLSPG
notes: Fc fragment variant
B3: Construct 4 PAL02-0198 (IgG1 Fc_M252Y/S254T/T256E/M428L/N434F) (other)
chain: DKTHTCPPCPAPELLGGPSVFLFPPKPKDTLYITREPEVTCVVVDVSHEDPEVKFNWYVDGVEVHNAKTKPREEQYNSTYRVVSVLTVLHQDWLNGKEYKCKVSNKALPAPIEKTISKAKGQPREPQVYTLPPSRDELTKNQVSLTCLVKGFYPSDIAVEWESNGQPENNYKTTPPVLDSDGSFFLYSKLTVDKSRWQQGNVFSCSVLHEALHFHYTQKSLSLSPG
notes: Fc fragment variant
B4: Construct 6 PAL02-0202 (IgG1 Fc_M252Y/S254T/T256E/H433R/N434F) (other)
chain: DKTHTCPPCPAPELLGGPSVFLFPPKPKDTLYITREPEVTCVVVDVSHEDPEVKFNWYVDGVEVHNAKTKPREEQYNSTYRVVSVLTVLHQDWLNGKEYKCKVSNKALPAPIEKTISKAKGQPREPQVYTLPPSRDELTKNQVSLTCLVKGFYPSDIAVEWESNGQPENNYKTTPPVLDSDGSFFLYSKLTVDKSRWQQGNVFSCSVMHEALRFHYTQKSLSLSPG
notes: Fc fragment variant
B5: Construct 5 PAL02-0200 (IgG1 Fc_M252Y/S254T/T256E/H433R/N434Y) (other)
chain: DKTHTCPPCPAPELLGGPSVFLFPPKPKDTLYITREPEVTCVVVDVSHEDPEVKFNWYVDGVEVHNAKTKPREEQYNSTYRVVSVLTVLHQDWLNGKEYKCKVSNKALPAPIEKTISKAKGQPREPQVYTLPPSRDELTKNQVSLTCLVKGFYPSDIAVEWESNGQPENNYKTTPPVLDSDGSFFLYSKLTVDKSRWQQGNVFSCSVMHEALRYHYTQKSLSLSPG
notes: Fc fragment variant

Each binder was assayed against T1, Recombinant in-house Human FcRn protein (human, UniProt P55899 24-297; P61769 21-119) (assay: competition ELISA, huFcRn coated, pH 6.0, competitor biotinylated human IgG1; reference PAL02-0002).
T1 construct: also called HuFcRn; huFcRn
Protocol: A competitive binding ELISA assay was used to screen for molecules that prevent IgG from binding to recombinant in-house human FcRn protein at pH 6.0. Candidate therapeutics prevent FcRn from binding IgG Abs in the acidic pH 6.0 endosomal environment. […] IC50 values were calculated using GraphPad Prism 7 software applying a nonlinear regression (curve fit) of a log (antagonist) vs. response—variable slop (four parameters).

T1 sequence (P55899 24-297 limits assumed, chain 1 of 2): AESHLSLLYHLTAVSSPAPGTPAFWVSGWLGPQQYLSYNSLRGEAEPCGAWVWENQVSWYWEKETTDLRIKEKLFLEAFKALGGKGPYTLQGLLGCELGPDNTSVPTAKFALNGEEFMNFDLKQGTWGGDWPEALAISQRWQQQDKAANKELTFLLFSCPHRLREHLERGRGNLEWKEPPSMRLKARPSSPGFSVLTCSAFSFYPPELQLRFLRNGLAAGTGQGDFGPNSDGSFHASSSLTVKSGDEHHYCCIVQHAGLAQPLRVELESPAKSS
T1 sequence (P61769 21-119 limits assumed, chain 2 of 2): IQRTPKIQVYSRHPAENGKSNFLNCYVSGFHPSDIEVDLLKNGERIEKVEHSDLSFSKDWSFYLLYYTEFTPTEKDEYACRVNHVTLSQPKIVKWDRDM

Q: For B1, which “IC50 as a ratio to Efgartigimod” value is on record?
A: ~0.5 ratio

Q: For B2, which “IC50 as a ratio to Efgartigimod” value is on record?
A: ~0.5 ratio

Q: What about the “fold lower IC50 than Efgartigimod” value of the same binder?
A: 3.5 fold

Q: Which “IC50 as a ratio to Efgartigimod” value does the source give for B3 here?
A: ~0.5 ratio

Q: B4 was tested. Which “IC50 as a ratio to Efgartigimod” value did it give?
A: ~0.5 ratio

Q: For B5, which “IC50 as a ratio to Efgartigimod” value is on record?
A: ~0.5 ratio
